B1: library; numbered along this chain (parent)
chain: MAAAAAAAAEQQSSNGPVKKSMREKAVERRSVNKEHNSNFKAGYIPIDEDRLHKTGLRGRKGNLAICVIILLFILAVINLIITLVIWAVIRIGPNGCDSMEFHESGLLRFKQVSDMGVIHPLYKSTVGGRRNENLVITGNNQPIVFQQGTTKLSVENNKTSITSDIGMQFFDPRTQNILFSTDYETHEFHLPSGVKSLNVQKASTERITSNATSDLNIKVDGRAIVRGNEGVFIMGKTIEFHMGGNMELKAENSIILNGSVMVSTTRLPSSSSGDQLGSGDWVRYKLCMCADGTLFKVQVTSQNMGCQISDNPCGNTH

Variants of: B1
Experiment: SGCB cell-surface expression functional score (HA stain, bin4 vs bin1, normalised to synonymous) (log10 ratio); higher = more cell-surface SGCB (functional)
Procedure, shortened: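 Using lentivirus at MOI <0.1, HA-tagged, YFP-fused human beta-sarcoglycan codon-saturation libraries were put into HEK293 cells with stable alpha-, gamma- and delta-sarcoglycan expression, in duplicate transductions. YFP-positive cells were collected by sorting 72 hours later, grown 5–7 days, stained on ice with Alexa Fluor 647 anti-HA, fixed, sorted into four 5% intensity bins and amplicon-sequenced. The functional score takes the median, across codons and transductions, of the log ratio of highest-bin to lowest-bin variant frequency. Within each section, synonymous variants were scaled to mean 0, SD 0.5.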

| Variant | SGCB cell-surface expression functional score (log10) |
| --- | --- |
| G149N | 0.19 |
| G149E | -0.93 |
| G149K | -0.63 |
| G149A | -0.43 |
| G149P | -1.17 |
| G149I | -0.64 |
| G149F | -0.45 |
| G149V | -0.88 |
| G149R | -0.54 |
| G149S | -0.12 |
| G149L | -0.34 |
| G149W | -0.54 |
| G149C | -0.49 |
| G149D | -0.25 |
| G149M | -0.18 |
| G149T | -0.75 |
| G149Y | -0.57 |
| G149Q | -0.01 |
| G149H | -0.28 |
| T150H | 0 |
| T150Y | 0 |
| T150V | -0.25 |
| T150F | -0.59 |
| T150I | 0.04 |

| Variant | SGCB cell-surface expression functional score (log10) |
| --- | --- |
| T150W | 1.1 |
| T150G | -0.22 |
| T150E | -0.57 |
| T150P | -0.37 |
| T150L | -0.19 |
| T150K | -0.14 |
| T150D | 0.59 |
| T150Q | -0.12 |
| T150R | -0.26 |
| T150A | -0.2 |
| T150M | -0.99 |
| T150S | -0.15 |
| T150C | 0.25 |
| T150N | 0.07 |
| V145F | -0.11 |
| V145P | -1.15 |
| V145S | -0.31 |
| V145Q | -0.39 |
| V145H | -0.24 |
| V145A | -0.01 |
| V145K | -0.12 |
| V145M | -0.9 |
| V145G | -0.81 |
| V145C | -0.73 |

| Variant | SGCB cell-surface expression functional score (log10) |
| --- | --- |
| V145D | -0.79 |
| V145E | -0.03 |
| V145T | 0.04 |
| V145Y | -0.43 |
| V145I | 0.52 |
| V145R | -0.43 |
| V145L | -0.09 |
| V145W | -0.57 |
| V145N | -0.26 |
| K152V | 0.52 |
| K152H | -0.48 |
| K152F | 0.02 |
| K152T | -0.04 |
| K152E | -0.38 |
| K152G | -0.57 |
| K152L | -0.53 |
| K152N | -0.11 |
| K152W | 0.3 |
| K152A | 0 |
| K152P | -0.94 |
| K152R | -0.22 |
| K152M | -0.19 |
| K152I | 0.14 |
| K152D | -0.66 |

| Variant | SGCB cell-surface expression functional score (log10) |
| --- | --- |
| K152S | -0.23 |
| K152Q | -0.46 |
| K152C | 0.03 |
| K152Y | -0.59 |
| F146S | -0.84 |
| F146Y | -0.75 |
| F146N | -1.08 |
| F146M | -0.56 |
| F146V | -0.32 |
| F146C | -0.47 |
| F146Q | -1.34 |
| F146G | -0.94 |
| F146A | -1.22 |
| F146E | -0.7 |
| F146R | -1.45 |
| F146W | -1.15 |
| F146H | -0.89 |
| F146I | 0.28 |
| F146D | -1.36 |
| F146L | 0.18 |
| F146T | -1.45 |
| F146K | -0.93 |
| F146P | -1.14 |
| T151F | -1 |

| Variant | SGCB cell-surface expression functional score (log10) |
| --- | --- |
| T151I | -0.82 |
| T151V | -0.15 |
| T151N | -0.56 |
| T151R | -1.06 |
| T151G | -0.94 |
| T151W | -1.19 |
| T151S | 0.27 |
| T151D | -1.17 |
| T151P | -0.64 |
| T151C | -0.22 |
| T151Y | -1 |
| T151E | -1.31 |
| T151Q | -0.98 |
| T151H | -1.24 |
| T151A | -0.08 |
| T151M | -1.13 |
| T151K | -0.7 |
| T151L | -1.22 |
| I144W | -1.4 |
| I144S | -0.8 |
| I144L | -0.46 |
| I144P | -1.22 |
| I144T | -0.64 |
| I144V | 0.47 |

| Variant | SGCB cell-surface expression functional score (log10) |
| --- | --- |
| I144Y | -1.1 |
| I144R | -1.06 |
| I144Q | -0.96 |
| I144N | -0.97 |
| I144M | -0.89 |
| L153F | -0.26 |
| L153E | -0.79 |
| L153C | -0.34 |
| L153D | -1.44 |
| L153A | -1.08 |
| Q148I | -0.28 |
| Q148C | 0.39 |
| Q148K | -0.27 |
| Q148Y | -0.25 |
| Q148P | -1.36 |
| Q148V | 0.28 |
| Q148R | 0.02 |
| Q148S | 0.42 |
| Q148T | 0.08 |
| Q148L | -0.18 |
| Q148N | -1.26 |
| Q148F | -0.38 |
| Q148W | 0.01 |
| Q148E | -0.58 |

| Variant | SGCB cell-surface expression functional score (log10) |
| --- | --- |
| Q148A | 0.12 |
| Q148H | -0.24 |
| Q148D | -0.54 |
| Q148G | 0.33 |
| Q147T | -0.47 |
| Q147K | 0.26 |
| Q147L | -0.21 |
| Q147W | 0.33 |
| Q147F | -0.65 |
| Q147I | -0.06 |
| Q147E | 0.33 |
| Q147C | 0.5 |
| Q147S | 0.16 |
| Q147G | -0.41 |
| Q147M | -0.04 |
| Q147N | 0.29 |
| Q147A | 0.19 |
| Q147P | -0.68 |
| Q147R | -0.06 |
| Q147Y | -0.42 |
| Q147V | 0.26 |
| Q147H | -0.39 |
| Q147D | -0.27 |
